Assay results from US20190367619A1 (ARGENX, published 2019).
Positions count from the first letter of the chain named.

B1: 10A06 mouse IgG1 (antibody, V domains shown)
VH: QVQLVESGGGLVQPGGSLRLSCAASGFTFGNYDMSWVRQAPGKGPEWVSDINSGGGSTYYADSVKGRFTISRDNAKNSLLLQMNSLKPEDTAVYYCATGYTGYYYWGQGTQVTVSS
VL: QTVVTQEPSLSVSPGGTVTLTCGLSSGSVTSSNYPAWYQQTPGQAPRALIYSINSRHSGVPDRFSGSISGNKAALTITGAQAEDEADYYCTLYMGTGSNNVVFGGGTHLTVL
notes: VH and VL cloned in frame with mouse IgG1 constant domains; also called 10A06 mIgG1
B2: 11F12 mouse IgG1 (antibody, V domains shown)
VH: QVQLQESGGGLVQPGGSLRLSCAASGFTFSTNYMNWVRQAPGKGLEWVSGITSGGGRTYYADSVKGRFTISRDNAKNTLYLQMNSLKPEDTALYYCARTDHAWLDAWGQGTLVTVSS
VL: HSAVTQPPSVSGTLGKTVTISCAGTSSDVGYGNYVSWYQHLPGTAPKLLIYAVSTRASGVPDRFSGSKSGNTASLTISGLQSEDEGDYYCASYSVRNNVVFGGGTRLTVL
notes: VH and VL cloned in frame with mouse IgG1 constant domains; also called 11F12 mIgG1
B3: 2F09 mouse IgG1 (antibody, V domains shown)
VH: QVQVQESGPGLVKPSQTLSLTCTVSGGSITTNYFYWSWIRQSPGKGLEWIGAIAYSGRTYYSPSLKSRTSISRDTSNNQFTLQLSSVTPEDTAVYYCARGPKGLASYYDYWGQGTQVTVSS
VL: SSALTQPSAVSVSLGQTARITCQGGNFGYYYVSWYQQKPGQAPVLVIYRDSGRPSGIPERFSGSSSGDTATLTISGAQAEDEADYYCQSGSSSDNTVFGGGTHLTVL
notes: VH on mouse IgG1 heavy chain constant domains (CH1-CH2-CH3), VL on mouse lambda light chain constant domain; also called 2F09 mIgG1
B4: 6A05 mouse IgG1 (antibody, V domains shown)
VH: EVQLVESGGGLVQPGGSLRLSCAASGFTFSSYAMSWVRQAPGKGLEWVSAINSGGGWTSYVDSVKGRFTISRDNAKNTLYLQMDSLKPEDTAVYYCTKYSGPELNTQYGMDYWGKGTLVTVSS
VL: B3 VL with S1N, S2F, A3M, Y29S, V32A
notes: also called 6A05 mIgG1

Tests used:
human galectin-10-His [1] = target: T1, human galectin-10-His (human); experiment: SPR Biacore T3000, mouse IgG1 captured
T1 construct: The last M of the tag may be Met1 of galectin-10; also called humanGal10-His; hGal10
T1 chain: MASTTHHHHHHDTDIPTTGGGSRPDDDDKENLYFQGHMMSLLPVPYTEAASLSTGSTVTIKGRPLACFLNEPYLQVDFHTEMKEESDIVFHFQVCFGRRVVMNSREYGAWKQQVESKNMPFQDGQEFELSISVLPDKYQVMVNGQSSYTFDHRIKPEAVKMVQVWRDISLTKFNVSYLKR
Protocol: The binding capacity of the mouse IgG1 antibody panel to galectin-10 was analysed on Biacore T3000. For this purpose, a capture approach was used, where a fixed concentration (1.5 μg/mL) of the mouse IgG1 clone was captured by polyclonal anti-mouse Fc antibodies immobilized on CM5 Chip to reach a binding signal around 150 RU. Then a serial dilution of human and cynomolgus WGS isoform of galectin-10-His (serial dilution, 1 over 2 from 5 μg/mL) diluted in HBS-EP pH7.4 was injected. Raw data were analysed via BIA evaluation software with a blank subtraction. The kd/KD and Rmax of each mAbs to galectin-10-His was determined using the Fit Kinetics simultaneous ka/kd/Binding with mass transfer/Local Rmax on BIA evaluation software.

[2] = target: T2, cynomolgus galectin-10-His, YRT isoform (cynomolgus); experiment: ELISA, coated antigen 0.5 ug/mL
T2 construct: also called cynoGal10-YRT; not shown: His tag
T2 chain: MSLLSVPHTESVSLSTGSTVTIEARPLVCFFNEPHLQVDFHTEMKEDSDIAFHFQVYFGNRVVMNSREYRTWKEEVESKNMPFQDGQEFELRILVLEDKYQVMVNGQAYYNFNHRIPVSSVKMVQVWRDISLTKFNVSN
Protocol: (§1) In a similar setup to that used during the characterization of the scFv-human Fc molecules, the relative binding properties of the 7 mouse IgG1 antibodies were analyzed by ELISA. A Maxisorp plate was coated overnight with 0.5 μg/mL of human or cynomolgus WGS or YRT isoform of galectin-10-His. Then a serial dilution of each clone (from 100 nM, dilution 1/4, 12 points of dilutions) was incubated on coated galectin-10. After several washing steps, detection of the bound mouse IgG1 was carried out with an anti-mouse Fc-HRP antibody (DAMPO, Jackson ImmunoResearch, Catalog 715-035-150). Absorbance was measured at 450 nm (reference at 620 nm) with Tecan instrument. The raw data (OD values) were plotted on GraphPad Prism 7.01. The EC50 values for each antibody, calculated with a non-linear regression (log(agonist) vs. response Variable slope (four parameters)), are shown in the table below. Antibody 1D11 from the previous panel was included for comparison.

human galectin-10-His [3] = target: T1, human galectin-10-His; experiment: ELISA, coated antigen 0.5 ug/mL
Protocol: as §1

[4] = target: T3, recombinant human galectin-10, TEV-cleaved (human, UniProt Q05315 1-142); experiment: cell-based or functional assay
T3 sequence: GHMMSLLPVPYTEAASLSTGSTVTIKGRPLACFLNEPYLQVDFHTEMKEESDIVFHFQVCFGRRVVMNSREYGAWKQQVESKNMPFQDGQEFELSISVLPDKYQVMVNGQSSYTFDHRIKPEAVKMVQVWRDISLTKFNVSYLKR

[5] = target: T3, recombinant human galectin-10, …; experiment: cell-based or functional assay; remark: listed apart in the source
[6] = target: T4, human galectin-10-His (recombinant human galectin-10 with TEV-cleavable N-terminal His-tag) (human); experiment: BLI tandem on galectin-10-His; competitor: saturating 1C09 mIgG1 (10 ug/mL)
T4 construct: SEC-MALLS: dimer in solution; also called Gal10-His; humanGal10-His
T4 chain: T1 chain
Protocol: (§2) In order to identify the galectin-10 binding sites of the different clones, an epitope mapping method (TANDEM), using the BLI technology, was established. Briefly, the galectin-10-His was captured on anti-HIS 1K sensor tips, before incubation with an excess of one antibody (called the “saturating” antibody) then directly transferred to a solution containing the “competitor” antibody at a suboptimal concentration. If the “saturating” and the competitor antibody bind to the same binding sites, no binding of “competitor” will be detected (expressed in nm shift).

[7] = target: T4, human galectin-10-His (recombinant …); experiment: SPR Biacore T3000, mouse IgG1 captured by anti-mouse Fc, galectin-10-His as analyte
Protocol: The binding capacity of the mouse IgG1 antibodies to galectin-10 was analyzed on Biacore T3000. For this purpose, a capture approach was set up. A CM5 Chip was coated with polyclonal anti-mouse Fc at 8000 RU, then a fixed concentration of the mouse IgG1 antibody panel (1.5 μg/mL), diluted in HBS-EP pH7.4, was captured to reach a binding signal around 150 RU. Finally, a serial dilution of galectin-10-His (serial dilution, 1 over 2 from 5 μg/mL) diluted in HBS-EP pH7.4 was injected. Raw data were analyzed via BIA evaluation software with a blank subtraction (4-3). The kd/KD and Rmax of each mAb to galectin-10-His was determined using the Fit Kinetics simultaneous ka/kd/Binding with mass transfer/Local Rmax on BIA evaluation software.

[8] = target: T4, human galectin-10-His (recombinant …); experiment: BLI tandem on galectin-10-His; competitor: saturating 2F09 mIgG1 (10 ug/mL)
Protocol: as §2

[9] = target: T5, TEV-cleaved wild-type recombinant human galectin-10 (soluble, in Fab complexes, or as recombinant galectin-10 … (human, UniProt Q05315 1-142)); experiment: cell-based or functional assay
T5 sequence: T3 sequence

[10] = target: T4, human galectin-10-His (recombinant …); experiment: BLI tandem on galectin-10-His; competitor: saturating 6F06 mIgG1 (10 ug/mL)
Protocol: as §2

[11] = target: T4, human galectin-10-His (recombinant …); experiment: BLI tandem on galectin-10-His; competitor: saturating 6A05 mIgG1 (10 ug/mL)
Protocol: as §2

[12] = target: T4, human galectin-10-His (recombinant …); experiment: ELISA, mouse IgG1 on coated galectin-10-His (0.2 ug/mL)
Protocol: In a similar setup to that used during the characterization of the scFv-human Fc molecules, the relative binding affinities of the 10 mouse IgG1 antibodies were analyzed by ELISA. A Maxisorp plate was coated overnight with 0.2 μg/mL of galectin-10-His. Then a serial dilution of each clone (from 100 nM, dilution 1/4, 12 points of dilutions) was incubated on coated galectin-10. After several washing steps, detection of the bound mouse IgG1 was carried out with an anti-mouse Fc-HRP antibody. Absorbance was measured at 450 nm (reference at 620 nm) with Tecan instrument. A mouse IgG1 isotype control was used as negative control. A polyclonal anti-galectin-10 antibody was used as positive control for the coating of galectin-10. The raw data (OD values) were plotted on GraphPad Prism 7.01. The EC50 values for each antibody, calculated with a non-linear regression (log(agonist) vs. response Variable slope (four parameters)), are reported in Table 7 below.

[13] = target: T4, human galectin-10-His (recombinant …); experiment: BLI tandem on galectin-10-His; competitor: saturating 6E10 mIgG1 (10 ug/mL)
Protocol: as §2

[14] = target: T4, human galectin-10-His (recombinant …); experiment: BLI tandem on galectin-10-His; competitor: saturating 4E08 mIgG1 (10 ug/mL)
Protocol: as §2

[15] = target: T4, human galectin-10-His (recombinant …); experiment: BLI tandem on galectin-10-His; competitor: saturating 2C07 mIgG1 (10 ug/mL)
Protocol: as §2

[16] = target: T4, human galectin-10-His (recombinant …); experiment: BLI tandem on galectin-10-His; competitor: saturating 6A08 mIgG1 (10 ug/mL)
Protocol: as §2

[17] = target: T4, human galectin-10-His (recombinant …); experiment: BLI tandem on galectin-10-His; competitor: saturating 6B06 mIgG1 (10 ug/mL)
Protocol: as §2

[18] = target: T4, human galectin-10-His (recombinant …); experiment: BLI tandem on galectin-10-His; isotype control as saturating antibody (10 ug/mL)
Protocol: as §2

[19] = target: T4, human galectin-10-His (recombinant …); experiment: BLI tandem on galectin-10-His; competitor: saturating 1D11 mIgG1 (10 ug/mL)
Protocol: as §2

Row | Binder | Kd (human galectin-10-His [1]) [nM] | koff (human galectin-10-His [1]) [s⁻¹] | kon (human galectin-10-His [1]) [M⁻¹ s⁻¹] | EC50 [2] [nM] | OD values [2] [OD] | EC50 (human galectin-10-His [3]) [nM] | OD values (human galectin-10-His [3]) [OD] | 50% crystal dissolution (min), 50 uM [4] [min] | 90% crystal dissolution (min), 50 uM [4] [min] | 50% dissolution (min) of CLCs, antibody 50 uM [5] [min] | 90% dissolution (min) of CLCs, antibody 50 uM [5] [min] | binding signal (nm) [6] [nm] | Kd [7] [nM] | koff [7] [s⁻¹] | binding signal (nm) [8] [nm] | 100% Solubilization of CLC (Conc uM) [9] [µM] | binding signal (nm) [10] [nm] | binding signal (nm) [11] [nm] | Bmax [12] [OD] | EC50 [12] [nM] | further results
1 | B1 | 0.9 | 0.0101 | 1.17e+07 | 0.06 | 3.38 | 0.63 | 0.3 | > 120 | > 120 | 44.5 | 86.6 | – | – | – | – | – | – | – | – | – | –
2 | B2 | 0.7 | 0.00224 | 3.04e+06 | 0.21 | 3.35 | 4.83 | 2.7 | 65.4 | > 120 | 21.3 | 42.6 | – | – | – | – | – | – | – | – | – | –
3 | B3 | – | – | – | – | – | – | – | – | – | – | – | 0.04 | 0.3 | 0.00034 | 0.03 | 10.7 | 0.06 | 0.12 | 3.29 | 0.05 | binding signal (nm) [13]: 0.03 nm; binding signal (nm) [14]: 0.1 nm; binding signal (nm) [15]: 0.05 nm; binding signal (nm) [16]: 0.07 nm; binding signal (nm) [17]: 0.03 nm; binding signal (nm) [18]: 1.14 nm; binding signal (nm) [19]: 0.12 nm
4 | B4 | – | – | – | – | – | – | – | – | – | – | – | 0 | 0.6 | 0.00483 | 0.01 | 10.1 | 0.02 | 0.05 | 1.74 | 0.07 | binding signal (nm) [13]: -0.03 nm; binding signal (nm) [14]: -0.03 nm; binding signal (nm) [15]: 0.01 nm; binding signal (nm) [16]: 0 nm; binding signal (nm) [17]: 0 nm; binding signal (nm) [18]: 1.02 nm; binding signal (nm) [19]: 0.04 nm
